Experimental data from patent publication US20140193417A1 (LUDWIG INSTITUTE FOR CANCER RESEARCH, published 2014).

Assays:
[1] = biological target: T1, His-NaPi2b-ECD (His-tagged aa 188-361 of NaPi2b, Sf9 insect cells) (human, UniProt O95436 188-361); assay: Western blot
T1 construct: range 188-361; Baculovirus expression; also called His-tagged protein in Sf9 insect cells; not shown: His tag
T1 sequence (looked up): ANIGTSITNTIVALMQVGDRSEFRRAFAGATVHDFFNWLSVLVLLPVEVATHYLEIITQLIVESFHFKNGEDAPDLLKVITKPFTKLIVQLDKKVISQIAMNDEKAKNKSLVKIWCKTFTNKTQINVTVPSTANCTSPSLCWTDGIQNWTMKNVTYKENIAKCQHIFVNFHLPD

[2] = biological target: T2, sodium-dependent phosphate transport protein 2b (NaPi2b, SLC34A2), human, endogenous (human, UniProt O95436 1-690); assay: mixed hemadsorption assay (MHA) on SK-RC-33 renal cancer cells
T2 construct: whole, on cells; Naturally expressed, N-glycosylated membrane protein of human cancer cell lines (OVCAR-3, SK-RC-18 and others) and tissues; used on intact cells (MHA, flow cytometry), in cell or tissue lysates (Western blot, immunoprecipitation) and in tissue sections; also called MX35 antigen; NaPi2b/MX35
T2 sequence (looked up): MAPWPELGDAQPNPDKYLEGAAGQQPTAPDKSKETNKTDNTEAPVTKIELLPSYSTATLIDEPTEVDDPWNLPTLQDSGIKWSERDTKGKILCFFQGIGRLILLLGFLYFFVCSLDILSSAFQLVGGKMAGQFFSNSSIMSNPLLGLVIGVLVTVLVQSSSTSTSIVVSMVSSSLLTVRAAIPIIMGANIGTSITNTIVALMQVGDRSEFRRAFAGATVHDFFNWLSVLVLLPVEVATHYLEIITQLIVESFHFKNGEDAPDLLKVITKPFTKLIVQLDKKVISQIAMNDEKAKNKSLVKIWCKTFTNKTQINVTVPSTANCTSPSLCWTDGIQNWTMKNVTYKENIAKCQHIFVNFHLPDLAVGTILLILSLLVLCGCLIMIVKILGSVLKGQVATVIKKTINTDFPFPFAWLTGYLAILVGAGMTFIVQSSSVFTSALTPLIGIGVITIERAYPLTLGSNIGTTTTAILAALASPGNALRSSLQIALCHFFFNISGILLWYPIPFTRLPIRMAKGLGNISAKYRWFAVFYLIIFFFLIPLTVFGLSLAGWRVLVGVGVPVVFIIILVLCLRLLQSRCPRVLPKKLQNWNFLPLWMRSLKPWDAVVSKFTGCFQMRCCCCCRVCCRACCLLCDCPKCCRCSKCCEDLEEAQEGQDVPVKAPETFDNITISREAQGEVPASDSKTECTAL
Text: A panel of cancer cell lines was co-typed for SLC34A2 mRNA expression by RT-PCR and for cell surface expression of MX35 protein antigen in a mixed hemadsorption assay (MHA) using mAb MX35 as probe. In addition, cell lysates were probed by Western blot analysis for MX35 expression. A panel of cancer cell lines with known expression of MX35 antigen was included. Strong expression of SLC34A2 mRNA correlated with MX35 antigen cell surface expression in all cells analyzed (Table 1). No such correlation was found for the Zinc-finger protein 638 (data not shown).

[3] = biological target: T3, NaPi2b 312-340 array peptide Ac-INVTVPSTANCTSPSLCWTDGIQNWTMKN-amide (human, N-terminal acetyl (Ac-), C-terminal amide); assay: synthetic peptide membrane array, 1 ug/ml antibody
T3 peptide: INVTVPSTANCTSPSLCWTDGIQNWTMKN
Procedure: (§1) For epitope mapping, membranes were incubated for 3 hours with 1 ug/ml primary antibody, followed by incubation with HRP-labeled goat anti-mouse polyclonal antibodies (Jackson ImmunoResearch Laboratories, West Grove, Pa.) for 2 hours. Bound antibody was visualized by chemiluminescence (Western Lightning Plus). For epitope mapping under reducing condition, membranes were incubated in 1 mM DTT for 1 hour at room temperature, and then washed extensively prior to antibody incubation.

[4] = biological target: T4, NaPi2b 312-340 array peptide with Ala at 322 and 328, Ac-INVTVPSTANATSPSLAWTDGIQNWTMKN-amide (human, N-terminal acetyl (Ac-), C-terminal amide); assay: synthetic peptide membrane array, 1 ug/ml antibody
T4 peptide: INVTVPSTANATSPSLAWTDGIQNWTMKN
Procedure: as §1

[5] = biological target: T5, NaPi2b 320-340 array peptide Ac-ANCTSPSLCWTDGIQNWTMKN-amide (human, N-terminal acetyl (Ac-), C-terminal amide); assay: synthetic peptide membrane array, 1 ug/ml antibody
T5 peptide: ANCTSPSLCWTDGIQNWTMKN
Procedure: as §1

[6] = biological target: T6, NaPi2b 323-340 array peptide Ac-TSPSLCWTDGIQNWTMKN-amide (human); assay: synthetic peptide membrane array, 1 ug/ml antibody
T6 peptide: Ac-TSPSLCWTDGIQNWTMKN-NH2
Procedure: as §1

[7] = biological target: T7, NaPi2b 312-340 array peptide with Ala at 322, Ac-INVTVPSTANATSPSLCWTDGIQNWTMKN-amide (human, N-terminal acetyl (Ac-), C-terminal amide); assay: synthetic peptide membrane array, 1 ug/ml antibody
T7 peptide: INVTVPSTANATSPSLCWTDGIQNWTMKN
Procedure: as §1

[8] = biological target: T8, NaPi2b 317-340 array peptide Ac-PSTANCTSPSLCWTDGIQNWTMKN-amide (human, N-terminal acetyl (Ac-), C-terminal amide); assay: synthetic peptide membrane array, 1 ug/ml antibody
T8 peptide: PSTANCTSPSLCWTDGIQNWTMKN
Procedure: as §1

[9] = biological target: T9, NaPi2b 312-340 array peptide with Ala at 328, Ac-INVTVPSTANCTSPSLAWTDGIQNWTMKN-amide (human, N-terminal acetyl (Ac-), C-terminal amide); assay: synthetic peptide membrane array, 1 ug/ml antibody
T9 peptide: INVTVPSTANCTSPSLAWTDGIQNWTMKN
Procedure: as §1

[10] = biological target: T10, NaPi2b 324-338 array peptide Ac-SPSLCWTDGIQNWTM-amide (human); assay: synthetic peptide membrane array, 1 ug/ml antibody
T10 peptide: Ac-SPSLCWTDGIQNWTM-NH2
Procedure: as §1

Measured: binding result

B1: Murine mAb MX35 (IgG1) (antibody, V domains shown)
VH: QVQLKQSGAELVKPGASVKMSCKASGYTFTGYNIHWVKQTPGQGLEWIGAIYPGNGDTSYKQKFRGKASLTADTSSSTVYMQLSSLTSEDSAVYYCARGETARATFAYWGQGTLVTVSA
VL: DIQMTQTTSSLPASLGDRVTISCSASQDIGNFLNWYQQKPDGTVKVLIYYTSSLYSGVPSRFSGSGSGTDYSLTISNLEPEDIATYYCQQYSKLPLTFGAGTKLELKR
notes: also called MX35 MAb; monoclonal antibody MX35
binds: all assays above
